First the molecules themselves.
B1: Paraneoplastic antigen Ma2 (Homo sapiens), Q9UL42 (parent)
chain: MALALLEDWCRIMSVDEQKSLMVTGIPADFEEAEIQEVLQETLKSLGRYRLLGKIFRKQENANAVLLELLEDTDVSAIPSEVQGKGGVWKVIFKTPNQDTEFLERLNLFLEKEGQTVSGMFRALGQEGVSPATVPCISPELLAHLLGQAMAHAPQPLLPMRYRKLRVFSGSAVPAPEEESFEVWLEQATEIVKEWPVTEAEKKRWLAESLRGPALDLMHIVQADNPSISVEECLEAFKQVFGSLESRRTAQVRYLKTYQEEGEKVSAYVLRLETLLRRAVEKRAIPRRIADQVRLEQVMAGATLNQMLWCRLRELKDQGPPPSFLELMKVIREEEEEEASFENESIEEPEERDGYGRWNHEGDD
partner: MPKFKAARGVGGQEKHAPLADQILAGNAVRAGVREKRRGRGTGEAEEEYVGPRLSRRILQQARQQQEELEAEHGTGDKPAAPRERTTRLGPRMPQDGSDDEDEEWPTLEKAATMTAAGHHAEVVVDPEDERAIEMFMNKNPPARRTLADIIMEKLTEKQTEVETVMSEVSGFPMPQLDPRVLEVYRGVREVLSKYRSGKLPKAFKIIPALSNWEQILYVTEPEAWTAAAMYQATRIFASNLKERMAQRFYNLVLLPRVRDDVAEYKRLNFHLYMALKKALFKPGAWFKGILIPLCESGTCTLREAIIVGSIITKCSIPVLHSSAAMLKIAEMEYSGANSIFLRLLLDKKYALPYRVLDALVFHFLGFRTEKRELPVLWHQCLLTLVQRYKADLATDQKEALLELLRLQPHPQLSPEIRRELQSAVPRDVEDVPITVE
B2: von Hippel-Lindau disease tumor suppressor (Homo sapiens), P40337-2 (parent)
chain: MPRRAENWDEAEVGAEEAGVEEYGPEEDGGEESGAEESGPEESGPEELGAEEEMEAGRPRPVLRSVNSREPSQVIFCNRSPRVVLPVWLNFDGEPQPYPTLPPGTGRRIHSYRVYTLKERCLQVVRSLVKPENYRRLDIVRSLYEDLEDHPNVQKDLERLTQERIAHQRMGD
B3: Dynein axonemal assembly factor 19 (Homo sapiens), Q8IW40 (parent)
chain: MERNDIINFKALEKELQAALTADEKYKRENAAKLRAVEQRVASYEEFRGIVLASHLKPLERKDKMGGKRTVPWNCHTIQGRTFQDVATEISPEKAPLQPETSADFYRDWRRHLPSGPERYQALLQLGGPRLGCLFQTDVGFGLLGELLVALADHVGPADRAAVLGILCSLASTGRFTLNLSLLSRAERESCKGLFQKLQAMGNPRSVKEGLSWEEQGLEEQSGGLQEEERLLQELLELYQVD
B4: Breast cancer metastasis-suppressor 1 (Homo sapiens), Q9HCU9 (parent)
chain: MPVQPPSKDTEEMEAEGDSAAEMNGEEEESEEERSGSQTESEEESSEMDDEDYERRRSECVSEMLDLEKQFSELKEKLFRERLSQLRLRLEEVGAERAPEYTEPLGGLQRSLKIRIQVAGIYKGFCLDVIRNKYECELQGAKQHLESEKLLLYDTLQGELQERIQRLEEDRQSLDLSSEWWDDKLHARGSSRSWDSLPPSKRKKAPLVSGPYIVYMLQEIDILEDWTAIKKARAAVSPQKRKSDGP
B5: Transcription factor 12 (Homo sapiens), Q99081 (parent)
chain: MNPQQQRMAAIGTDKELSDLLDFSAMFSPPVNSGKTRPTTLGSSQFSGSGIDERGGTTSWGTSGQPSPSYDSSRGFTDSPHYSDHLNDSRLGAHEGLSPTPFMNSNLMGKTSERGSFSLYSRDTGLPGCQSSLLRQDLGLGSPAQLSSSGKPGTAYYSFSATSSRRRPLHDSAALDPLQAKKVRKVPPGLPSSVYAPSPNSDDFNRESPSYPSPKPPTSMFASTFFMQDGTHNSSDLWSSSNGMSQPGFGGILGTSTSHMSQSSSYGNLHSHDRLSYPPHSVSPTDINTSLPPMSSFHRGSTSSSPYVAASHTPPINGSDSILGTRGNAAGSSQTGDALGKALASIYSPDHTSSSFPSNPSTPVGSPSPLTGTSQWPRPGGQAPSSPSYENSLHSLQSRMEDRLDRLDDAIHVLRNHAVGPSTSLPAGHSDIHSLLGPSHNAPIGSLNSNYGGSSLVASSRSASMVGTHREDSVSLNGNHSVLSSTVTTSSTDLNHKTQENYRGGLQSQSGTVVTTEIKTENKEKDENLHEPPSSDDMKSDDESSQKDIKVSSRGRTSSTNEDEDLNPEQKIEREKERRMANNARERLRVRDINEAFKELGRMCQLHLKSEKPQTKLLILHQAVAVILSLEQQVRERNLNPKAACLKRREEEKVSAVSAEPPTTLPGTHPGLSETTNPMGHM
partner: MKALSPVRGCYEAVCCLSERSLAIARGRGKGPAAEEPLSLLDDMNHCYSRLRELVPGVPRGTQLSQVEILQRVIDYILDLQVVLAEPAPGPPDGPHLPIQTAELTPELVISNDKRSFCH

The first test covers variants of B1. The note with it: with byst_human BYSL.
E186K: the “effect of a mutation on the interaction” value was “with no effect”.

The variants in a further test derive from B2. The conditions noted are these: with mdfi_human MDFI.
With H167D, the “effect of a mutation on the interaction” value is “disrupting interaction strength”.

As to F76S, the “effect of a mutation on the interaction” value was “disrupting interaction strength”.

In the case of S65W, the “effect of a mutation on the interaction” value was “with no effect”.

A further test covers variants of B3. The conditions noted are these: with vac14_human VAC14, Q08AM6.
vac14_human VAC14, Q08AM6, sequence (Q08AM6 whole entry): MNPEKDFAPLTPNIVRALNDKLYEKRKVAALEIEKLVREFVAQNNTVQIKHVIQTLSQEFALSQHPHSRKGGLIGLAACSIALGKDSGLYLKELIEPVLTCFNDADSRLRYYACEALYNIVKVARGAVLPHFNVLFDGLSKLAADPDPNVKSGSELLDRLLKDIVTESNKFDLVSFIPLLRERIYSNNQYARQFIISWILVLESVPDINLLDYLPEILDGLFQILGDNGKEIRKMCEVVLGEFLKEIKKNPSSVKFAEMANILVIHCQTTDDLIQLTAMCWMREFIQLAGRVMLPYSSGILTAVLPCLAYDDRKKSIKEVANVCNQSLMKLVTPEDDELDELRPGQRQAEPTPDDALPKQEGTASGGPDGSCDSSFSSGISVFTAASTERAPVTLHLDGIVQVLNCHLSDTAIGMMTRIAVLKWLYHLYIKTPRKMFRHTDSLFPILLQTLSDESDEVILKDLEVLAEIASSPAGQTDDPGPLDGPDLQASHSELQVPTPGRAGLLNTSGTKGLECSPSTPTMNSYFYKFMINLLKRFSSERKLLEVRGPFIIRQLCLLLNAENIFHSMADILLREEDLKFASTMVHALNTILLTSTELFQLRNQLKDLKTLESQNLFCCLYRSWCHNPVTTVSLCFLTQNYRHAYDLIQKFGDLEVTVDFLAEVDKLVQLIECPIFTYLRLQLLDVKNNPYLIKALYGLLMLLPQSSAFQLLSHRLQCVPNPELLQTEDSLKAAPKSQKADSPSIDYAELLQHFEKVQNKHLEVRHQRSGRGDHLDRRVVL
For H112N, the “effect of a mutation on the interaction” value is “with no effect”. Still for that read-out and setting: for H154P the value was “with no effect”.

The variants in another test derive from B4. The conditions noted are these: with cep70_human CEP70, Q8NHQ1.
cep70_human CEP70, Q8NHQ1, sequence (Q8NHQ1 whole entry): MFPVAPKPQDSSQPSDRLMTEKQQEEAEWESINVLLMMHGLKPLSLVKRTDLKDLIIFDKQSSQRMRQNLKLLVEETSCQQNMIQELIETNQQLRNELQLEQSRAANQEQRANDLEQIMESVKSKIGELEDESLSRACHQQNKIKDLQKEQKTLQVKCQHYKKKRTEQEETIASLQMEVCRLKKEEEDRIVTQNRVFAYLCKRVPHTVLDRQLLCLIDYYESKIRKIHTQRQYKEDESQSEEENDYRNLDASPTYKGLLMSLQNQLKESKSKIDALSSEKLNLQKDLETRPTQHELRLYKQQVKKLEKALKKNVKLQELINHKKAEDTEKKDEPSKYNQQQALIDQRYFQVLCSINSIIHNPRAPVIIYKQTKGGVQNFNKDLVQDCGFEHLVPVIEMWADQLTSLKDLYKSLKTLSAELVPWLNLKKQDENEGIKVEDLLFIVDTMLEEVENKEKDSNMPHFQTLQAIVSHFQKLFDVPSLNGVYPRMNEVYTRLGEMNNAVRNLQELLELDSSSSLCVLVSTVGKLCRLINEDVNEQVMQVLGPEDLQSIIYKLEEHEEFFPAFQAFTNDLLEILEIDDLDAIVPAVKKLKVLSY
As for S7G, the “effect of a mutation on the interaction” value was “with no effect”.

Variants of B5 are the subject of the next test. The note with it: with id3_human ID3, Q02535.
Take G300S: the “effect of a mutation on the interaction” value is on record as “with no effect”. For the variant D565V, the “effect of a mutation on the interaction” value was “with no effect”. With N479S, the “effect of a mutation on the interaction” value is “with no effect”. Turning to L483R, the “effect of a mutation on the interaction” value is given as “with no effect”. In the case of I11M, the “effect of a mutation on the interaction” value is “with no effect”.

Source of the values: IntAct's records for PubMed 31515488.
